Experiment: Pharmacokinetics of the IL-7Rαγc IgG2-Fc fusion protein in non-human primates (serum level quantified by TF-1-7Rα STAT5 phosphorylation bioassay)
Type: in vivo
Settings: single dose of 1 mg/kg
Method: A pharmacokinetic study of an IL-7Rαγc IgG2-Fc fusion protein was performed in non-human primates. The IL-7Rαγc IgG2-Fc fusion having SEQ ID NO: 45 was administered intravenously (IV), subcutaneously (SC), or intramuscularly (IM) with a single dose of 1 mg/kg into each non-human primate (n=10). Blood samples were collected at times post-dose into serum separator vials. Samples were centrifuged at 10,000× g for 5 min at 4° C. followed by transferring the serum to a new tube. Samples were frozen and stored at −80° C. prior to testing.
The TF-1-7Rα STAT5 phosphorylation bioassay was used to quantity the amount of the IL-7Rαγc IgG2-Fc fusion in each of the serum samples. Three-fold serial dilutions of each serum sample or a compound reference standard in starvation media were added to the cells and incubated for 30 mins with the cells. Cells extracts were prepared and the quantity of phosphorylated STAT5 was determined as described in Example 3. The IL-7Rαγc IgG2-Fc fusion protein concentration in each serum sample was calculated using a standard curve generated from the reference standard.

B1: hu-IgG2-Fc-(GS)10GG-IL-7Raγc (protein)
chain: ERKSSVECPPCPAPPVAGPSVFLFPPKPKDTLMISRTPEVTCVVVDVSHEDPEVQFNWYVDGVEVHNAKTKPREEQFNSTFRVVSVLTVVHQDWLNGKEYKCKVSNKGLPAPIEKTISKTKGQPREPQVYTLPPSREEMTKNQVSLTCLVKGFYPSDIAVEWESNGQPENNYKTTPPMLDSDGSFFLYSKLTVDKSRWQQGNVFSCSVMHEALHNHYTQKSLSLSPGAGSGSGSGSGSGSGSGSGSGSGGGWGIPWCTLDPGSLQCAWLGKHGGGGSGGVVCQDWEGVELCWQGG
notes: IL-7R agonist
For B1, the “bioavailability % F for IM administration” value (intramuscular vs intravenous) was 117% and the “bioavailability % F for SC administration” value (subcutaneous vs intravenous) was 112%.
